# Starred links: 1 amine or outer side, 2 acyl side, 3 side chain; linkers in the order of their positions; H or OH if unused. Non-standard residues stand in square brackets, D forms with d. Groups on a side chain read outwards from the residue. Primed or numbered codes have the meaning given here. No end group written: not given here. *: point of attachment. C20 diacid = O=C(O)CCCCCCCCCCCCCCCCCCC(=O)*; C18 diacid = O=C(O)CCCCCCCCCCCCCCCCC(=O)*; γGlu = O=C(O)[C@H](CCC(=O)[*:2])N[*:1]; Stearoyl = CCCCCCCCCCCCCCCCCC(=O)*; Palmitoyl = CCCCCCCCCCCCCCCC(=O)*; αMeF = C[C@](N)(Cc1ccccc1)C(=O)O; Myristoyl = CCCCCCCCCCCCCC(=O)*; PEG2′ = polyethylene glycol 2; AEEA = NCCOCCOCC(=O)O; Aib = CC(C)(N)C(=O)O
# B1: Peptide 109 (peptide)
# peptide: HSQGS[αMeF]TSDVSK(Ac)[Aib]LDSK([AEEA-AEEA-γGlu-C18 diacid])AAQD[αMeF]VQ[Aib]IAN-NH2
# modifications: N-terminus assumed
# SMILES: CC[C@H](C)[C@H](NC(=O)C(C)(C)NC(=O)[C@H](CCC(N)=O)NC(=O)[C@@H](NC(=O)[C@](C)(Cc1ccccc1)NC(=O)[C@H](CC(=O)O)NC(=O)[C@H](CCC(N)=O)NC(=O)[C@H](C)NC(=O)[C@H](C)NC(=O)[C@H](CCCCNC(=O)COCCOCCNC(=O)COCCOCCNC(=O)CC[C@H](NC(=O)CCCCCCCCCCCCCCCCC(=O)O)C(=O)O)NC(=O)[C@H](CO)NC(=O)[C@H](CC(=O)O)NC(=O)[C@H](CC(C)C)NC(=O)C(C)(C)NC(=O)[C@H](CCCCNC(C)=O)NC(=O)[C@H](CO)NC(=O)[C@@H](NC(=O)[C@H](CC(=O)O)NC(=O)[C@H](CO)NC(=O)[C@@H](NC(=O)[C@](C)(Cc1ccccc1)NC(=O)[C@H](CO)NC(=O)CNC(=O)[C@H](CCC(N)=O)NC(=O)[C@H](CO)NC(=O)[C@@H](N)Cc1c[nH]cn1)[C@@H](C)O)C(C)C)C(C)C)C(=O)N[C@@H](C)C(=O)N[C@@H](CC(N)=O)C(N)=O
# B2: Peptide 1 (peptide)
# peptide: HSQGS[αMeF]TSDVSK[Aib]LDSK([AEEA-AEEA-γGlu-C18 diacid])AAQD[αMeF]VQ[Aib]IAN-NH2
# modifications: N-terminus assumed
# SMILES: CC[C@H](C)[C@H](NC(=O)C(C)(C)NC(=O)[C@H](CCC(N)=O)NC(=O)[C@@H](NC(=O)[C@](C)(Cc1ccccc1)NC(=O)[C@H](CC(=O)O)NC(=O)[C@H](CCC(N)=O)NC(=O)[C@H](C)NC(=O)[C@H](C)NC(=O)[C@H](CCCCNC(=O)COCCOCCNC(=O)COCCOCCNC(=O)CC[C@H](NC(=O)CCCCCCCCCCCCCCCCC(=O)O)C(=O)O)NC(=O)[C@H](CO)NC(=O)[C@H](CC(=O)O)NC(=O)[C@H](CC(C)C)NC(=O)C(C)(C)NC(=O)[C@H](CCCCN)NC(=O)[C@H](CO)NC(=O)[C@@H](NC(=O)[C@H](CC(=O)O)NC(=O)[C@H](CO)NC(=O)[C@@H](NC(=O)[C@](C)(Cc1ccccc1)NC(=O)[C@H](CO)NC(=O)CNC(=O)[C@H](CCC(N)=O)NC(=O)[C@H](CO)NC(=O)[C@@H](N)Cc1c[nH]cn1)[C@@H](C)O)C(C)C)C(C)C)C(=O)N[C@@H](C)C(=O)N[C@@H](CC(N)=O)C(N)=O
# B3: Peptide 12 (peptide)
# peptide: H[Aib]HGS[αMeF]TSDVSK[αMeF]LDSK([AEEA-AEEA-γGlu-C18 diacid])AARDFVQ[Aib]IANT-NH2
# modifications: N-terminus assumed
# SMILES: CC[C@H](C)[C@H](NC(=O)C(C)(C)NC(=O)[C@H](CCC(N)=O)NC(=O)[C@@H](NC(=O)[C@H](Cc1ccccc1)NC(=O)[C@H](CC(=O)O)NC(=O)[C@H](CCCNC(=N)N)NC(=O)[C@H](C)NC(=O)[C@H](C)NC(=O)[C@H](CCCCNC(=O)COCCOCCNC(=O)COCCOCCNC(=O)CC[C@H](NC(=O)CCCCCCCCCCCCCCCCC(=O)O)C(=O)O)NC(=O)[C@H](CO)NC(=O)[C@H](CC(=O)O)NC(=O)[C@H](CC(C)C)NC(=O)[C@](C)(Cc1ccccc1)NC(=O)[C@H](CCCCN)NC(=O)[C@H](CO)NC(=O)[C@@H](NC(=O)[C@H](CC(=O)O)NC(=O)[C@H](CO)NC(=O)[C@@H](NC(=O)[C@](C)(Cc1ccccc1)NC(=O)[C@H](CO)NC(=O)CNC(=O)[C@H](Cc1c[nH]cn1)NC(=O)C(C)(C)NC(=O)[C@@H](N)Cc1c[nH]cn1)[C@@H](C)O)C(C)C)C(C)C)C(=O)N[C@@H](C)C(=O)N[C@@H](CC(N)=O)C(=O)N[C@H](C(N)=O)[C@@H](C)O
# B4: Peptide 13 (peptide)
# peptide: H[Aib]HGS[αMeF]TSDVSK[αMeF]LDSK([AEEA-AEEA-γGlu-C18 diacid])AARD[αMeF]VQ[Aib]IANT-NH2
# modifications: N-terminus assumed
# SMILES: CC[C@H](C)[C@H](NC(=O)C(C)(C)NC(=O)[C@H](CCC(N)=O)NC(=O)[C@@H](NC(=O)[C@](C)(Cc1ccccc1)NC(=O)[C@H](CC(=O)O)NC(=O)[C@H](CCCNC(=N)N)NC(=O)[C@H](C)NC(=O)[C@H](C)NC(=O)[C@H](CCCCNC(=O)COCCOCCNC(=O)COCCOCCNC(=O)CC[C@H](NC(=O)CCCCCCCCCCCCCCCCC(=O)O)C(=O)O)NC(=O)[C@H](CO)NC(=O)[C@H](CC(=O)O)NC(=O)[C@H](CC(C)C)NC(=O)[C@](C)(Cc1ccccc1)NC(=O)[C@H](CCCCN)NC(=O)[C@H](CO)NC(=O)[C@@H](NC(=O)[C@H](CC(=O)O)NC(=O)[C@H](CO)NC(=O)[C@@H](NC(=O)[C@](C)(Cc1ccccc1)NC(=O)[C@H](CO)NC(=O)CNC(=O)[C@H](Cc1c[nH]cn1)NC(=O)C(C)(C)NC(=O)[C@@H](N)Cc1c[nH]cn1)[C@@H](C)O)C(C)C)C(C)C)C(=O)N[C@@H](C)C(=O)N[C@@H](CC(N)=O)C(=O)N[C@H](C(N)=O)[C@@H](C)O
# B5: Peptide 14 (peptide)
# peptide: H[Aib]HGS[αMeF]TSDVSK[αMeF]LDSK([AEEA-AEEA-γGlu-γGlu-C20 diacid])AARD[αMeF]VQ[Aib]IANT-NH2
# modifications: N-terminus assumed
# SMILES: CC[C@H](C)[C@H](NC(=O)C(C)(C)NC(=O)[C@H](CCC(N)=O)NC(=O)[C@@H](NC(=O)[C@](C)(Cc1ccccc1)NC(=O)[C@H](CC(=O)O)NC(=O)[C@H](CCCNC(=N)N)NC(=O)[C@H](C)NC(=O)[C@H](C)NC(=O)[C@H](CCCCNC(=O)COCCOCCNC(=O)COCCOCCNC(=O)CC[C@H](NC(=O)CC[C@H](NC(=O)CCCCCCCCCCCCCCCCCCC(=O)O)C(=O)O)C(=O)O)NC(=O)[C@H](CO)NC(=O)[C@H](CC(=O)O)NC(=O)[C@H](CC(C)C)NC(=O)[C@](C)(Cc1ccccc1)NC(=O)[C@H](CCCCN)NC(=O)[C@H](CO)NC(=O)[C@@H](NC(=O)[C@H](CC(=O)O)NC(=O)[C@H](CO)NC(=O)[C@@H](NC(=O)[C@](C)(Cc1ccccc1)NC(=O)[C@H](CO)NC(=O)CNC(=O)[C@H](Cc1c[nH]cn1)NC(=O)C(C)(C)NC(=O)[C@@H](N)Cc1c[nH]cn1)[C@@H](C)O)C(C)C)C(C)C)C(=O)N[C@@H](C)C(=O)N[C@@H](CC(N)=O)C(=O)N[C@H](C(N)=O)[C@@H](C)O
# Columns and labels:
# [1] = target: human GLP-1 receptor (hGLP-1R) (human, UniProt P43220 24-463); experiment: cell-based or functional assay
# [2] = target: human glucagon receptor (hGCGR) (human, UniProt P47871 26-477); experiment: cell-based or functional assay
# human glucagon receptor (hGCGR), sequence (P47871 26-477): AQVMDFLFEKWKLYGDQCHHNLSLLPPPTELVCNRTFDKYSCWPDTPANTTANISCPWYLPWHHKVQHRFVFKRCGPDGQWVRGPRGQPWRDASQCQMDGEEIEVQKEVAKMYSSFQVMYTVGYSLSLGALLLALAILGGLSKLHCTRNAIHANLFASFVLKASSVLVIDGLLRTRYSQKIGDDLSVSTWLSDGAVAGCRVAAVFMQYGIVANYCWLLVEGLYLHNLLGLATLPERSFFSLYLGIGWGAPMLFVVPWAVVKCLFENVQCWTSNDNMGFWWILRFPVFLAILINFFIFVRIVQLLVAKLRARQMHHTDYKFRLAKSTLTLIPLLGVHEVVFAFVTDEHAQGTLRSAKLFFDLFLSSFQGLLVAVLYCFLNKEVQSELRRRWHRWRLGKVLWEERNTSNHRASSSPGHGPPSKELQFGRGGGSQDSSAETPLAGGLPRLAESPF
binder,measurement,setting,value
HSQGS[αMeF]TSDVSKILDSK([PEG2′-PEG2′-γGlu-γGlu-Myristoyl])AAQD[αMeF]VQ[Aib]IINT-NH2 [Peptide 119],hGLP-1R EC50 (pM),[1],1.39 pM
same,hGluc-R EC50 (pM),[2],1.7 pM
HSQGS[αMeF]TSDVSKILDSK([PEG2′-PEG2′-γGlu-Myristoyl])AAQD[αMeF]VQ[Aib]IINT-NH2 [Peptide 122],hGLP-1R EC50 (pM),[1],1.42 pM
same,hGluc-R EC50 (pM),[2],0.857 pM
H[Aib]QGS[αMeF]TSDVSKILDSK([PEG2′-PEG2′-γGlu-γGlu-Palmitoyl])AAQD[αMeF]VQ[Aib]IINT-NH2 [Peptide 125],hGLP-1R EC50 (pM),[1],0.575 pM
same,hGluc-R EC50 (pM),[2],6.68 pM
HSQGS[αMeF]TSDVSKILDSK([PEG2′-PEG2′-γGlu-γGlu-Palmitoyl])AAQD[αMeF]VQ[Aib]IINT-NH2 [Peptide 118],hGLP-1R EC50 (pM),[1],1.07 pM
same,hGluc-R EC50 (pM),[2],1.2 pM
H[Aib]QGS[αMeF]TSDVSKILDSK([PEG2′-PEG2′-γGlu-Stearoyl])AAQD[αMeF]VQ[Aib]IINT-NH2 [Peptide 127],hGLP-1R EC50 (pM),[1],0.998 pM
same,hGluc-R EC50 (pM),[2],12.6 pM
HSQGS[αMeF]TSDVSKILDSK([PEG2′-PEG2′-γGlu-Stearoyl])AAQD[αMeF]VQ[Aib]IINT-NH2 [Peptide 120],hGLP-1R EC50 (pM),[1],1.81 pM
same,hGluc-R EC50 (pM),[2],2.62 pM
H[Aib]QGS[αMeF]TSDVSKILDSK([PEG2′-PEG2′-γGlu-Palmitoyl])AAQD[αMeF]VQ[Aib]IINT-NH2 [Peptide 128],hGLP-1R EC50 (pM),[1],0.788 pM
same,hGluc-R EC50 (pM),[2],4.7 pM
HSQGS[αMeF]TSDVSKILDSK([PEG2′-PEG2′-γGlu-Palmitoyl])AAQD[αMeF]VQ[Aib]IINT-NH2 [Peptide 121],hGLP-1R EC50 (pM),[1],1.5 pM
same,hGluc-R EC50 (pM),[2],1.2 pM
HSQGS[αMeF]TSDVSKILDSKAAQD[αMeF]VQ[Aib]IAN-NH2 (not fully specified (residue 17)) [Peptide 111],hGLP-1R EC50 (pM),[1],1.92 pM
same,hGluc-R EC50 (pM),[2],2.09 pM
B1,hGLP-1R EC50 (pM),[1],698 pM
same,hGluc-R EC50 (pM),[2],> 26800 pM
H[Aib]QGS[αMeF]TSDVSKILDSK([PEG2′-PEG2′-γGlu-Myristoyl])AAQD[αMeF]VQ[Aib]IINT-NH2 [Peptide 129],hGLP-1R EC50 (pM),[1],0.462 pM
same,hGluc-R EC50 (pM),[2],4.1 pM
B2,hGLP-1R EC50 (pM),[1],3200 pM
same,hGluc-R EC50 (pM),[2],> 27100 pM
B3,hGLP-1R EC50 (pM),[1],14.5 pM
same,hGluc-R EC50 (pM),[2],47.7 pM
B4,hGLP-1R EC50 (pM),[1],15.9 pM
same,hGluc-R EC50 (pM),[2],44 pM
HSQGS[αMeF]TSDVSK(Ac)[Aib]LDSK([PEG2′-PEG2′-γGlu-γGlu-Stearyl])AAQD[αMeF]VQ[Aib]IAN-NH2 [Peptide 110],hGLP-1R EC50 (pM),[1],0.627 pM
same,hGluc-R EC50 (pM),[2],48.5 pM
B5,hGLP-1R EC50 (pM),[1],93.8 pM
same,hGluc-R EC50 (pM),[2],462 pM
